From a protein production outcome set (Wang et al. 2014)

Experiment: label from the status in PepcDB records

MKALNDSYDVVVVGAGPAGSMASYNASKNGAKTLLIEKSQEIGTPVRCAEAVPRLEDFGINPDPSFVKSYIRGGYLIAPNGKKIVVKGGKTDGYVVERKVFDKFLAIRSGQAGTQIAVKSRVTKIEKTDDGYNVFVNYLGDEYIVKSKIVIAADGVESNIAEYAGLKSKKNPKEICSCAEYEMTNVKLLNNEMMEFYFGDICPKGYIWLFPKGDTVNVGIGVIDSKKRAIDYLDEFLTHPLVEGRLDNAVPVEFKVGGDPVGGPIKKTVADNIMVVGDAAGHVSPLTGGGIGLSMDCGLMAGDVAAQSIKAENYSEEFLDLYEKKWKEKYYKLLMNDLKYKNILQKLSDDELNAIANSIPENLEEVDVGKLAIKIVAKAPSLLRHFKELL
protein production: failed

MSGKRVAKNTLFQIVKMLITTVVNLYMVRVLLHQLGVEGYGIFNLIAGVLALMLFLNGAMTTSSQRYLSFYSTQQLEKRTSVFATTKSLHIVVAMIIFLLLFSLQTFIFEDLINIPVSVVSSAQSLYQIMAVGVLASVVTVPFNAQINANEDLGIDAVFSVFESLFKLIAAFLIVFFENQLVSLGALFVLVSWTMLIVKVVYCRIKYEECNLLNFKLDIALFKEMIGFTSWNSFGAICGVARVQGLAVVLNHFFGVYINAVYAIAVQVNGKLKEFSINIMKAFNPRIVKAESKDNREEMLHLSMLASRFSLLLYSVIALPIFFETDFMLSIWLGDYPDGVLTFIKLFLVLAFVNLTTVGLQTAIQATGDVKAYQSTIGSVLLLTVPLAYIFLSLGYPPYTVIVVSIFMEVVSCGMRLAFLKLKAGLSIKKYILFVINKALQVLIPTIVVLFSLTISFEQSILRFISTTLVSFGMISFLTYWLVLGVEEKKMIRLKV
protein production: not failed

MTKTFKTLDDFLGTHFIYTYDNGWEYEWYAKNDHTVDYRIHGGMVAGRWVTDQKADIVMLTEGIYKISWTEPTGTDVALDFMPNEKKLHGTIFFPKWVEEHPEITVTYQNEHIDLMEQSREKYATYPKLVVPEFANITYMGDAGQNNEDVISEAPYKEMPNDIRNGKYFDQNYHRLNK
protein production: not failed

THGVVIIDVTKNENKVIYVNRAFERITGYGEQHALGKGLLTLLGSNLEEVNHKRIELAIRESKEETIEMESIKRNGEFYWCEISVAPVKDSF
protein production: failed

MGNHKAALTKQVFTFASELYAYGVREVVISPGSRSTPLALAFEAHPNIKTWIHPDERSAAFFAVGLIKGSERPVAILCTSGTAAANYTPAIAESQISRIPLIVLTSDRPHELRSVGAPQAINQVNMFNNYVSYEFDMPIADDSKETINAIYYQMQIASQYLYGPHKGPIHFNLPFRDPLTPDLNATELLTSEMKILPHY
protein production: failed

MQEVHDYGIKFWSNNEFKIEKGLVKVCHGKNPSLLEIVQSVRDKGYRGPLLVRFPHLVQKQIKSLFDAFSSAIKEYQYSGAFKAVFPLKVNQMPSFVFPLVQGAKGLNYGLEAGSKSELIIAMSYTNPKAPITVNGFKDKEMIELGFIAKSMQHEITLTIEGLNELKTIIAVAKQNEFLACPKIGIRIRLHSTGTGVWAKSGGINSKFGLSSTEVLEAMRLLEENDLLEHFHMIHFHIGSQISDISPLKKALREAGNLYAELRKMGAKNLNSVNIGGGLAVEYTQHKHHQDKNYTLEEFSADVVFLLREIVKNKQEIEPDIFIESGRYISANHAVLVAPVLELFSHEYNEKSLKIKENNNPPLIDEMLDLLANINEKNAIEYLHDSFDHTESLFTLFDLGYIDLIDRSNTEVLAHLIVKKAVQLLYVKDHNDILRIQEQVQERYLLNCSFFQSLPDYWGLRQNFPVMPLNKLDEKPTRSASLWDITCDSDGEIAFDSTKPLFLHDIDIDEEEYFLAFFLVGAYQEVLGMKHNLFTHPTEFSVVFDEKGDYEVEDICEAQTILDVLDDLDYDTKEIERLLKQKIEDNNQLDMEEKKEIMGRLYVMLSENGYLRTIS
protein production: failed

MHLTKTWLAQLPLTDIQQVQPVSGGDINAAFQIITRHHQYFLKVQPHNDVTFFDHEVAGLRLLGAVTKTPRVIASGTIATDGYLLLDWLATGTGSQSALGAAVAKVHHQHHAQFGLDHDFTAGKLPKINHWQTDWATFYTQQRLDVLVNLAKEHHLWSETREMHYHRLRQQLLQDSHMHTVKPSLLHGDLWSGNYLFDTTGTPVLIDPDVFYGDREMDLAMTTIFGGFDTDFYQAYQAAYPVAPGMQDRLPSYQLYYLLAHLNLFGETYGPAVDRILMQY
protein production: failed

MIRNLYNKIKNCKLKIAAIILLIFLIVTGYIYYSRYFYVLRSPQRVKEFILSYGKFGFFAFFVMQMLQVVAFFIPGEIIQIAGGYIFGTFWGTVISLLGITAGSAVAFYLSNKLGRPFVKKISGKQNISFFEKLIKNGEIKYVITLIYLVPGLPKDILAYVCGITDLSLKDFIIYSTIGRFPGIFISAYFGNTITHGNIKMMVIIAVISVVLFGLGVFKGKYLLTKISSIRSKKQK
protein production: failed
